# Reference: US20110293610A1 (published 2011)
# B1: I008A09 (scFv)
# scFv: GVQLVQSGGGVVQPGGSLRLSCAASGFTFSSYGMHWVRQAPGKGLEWVAVISYDGSNKYYADSVKGRFTISRDNSKNTLYLQMNSLRAEDTAVYYCARDREAYYDILTGYYLYYYYMDVWGRGTTVTVSSGGGGSGGGGSGGGGSQSVLTQPASVSGSPGQSITISCTGTSSDVGGYNYVSWYQQHPGKAPKLMIYEGSKRPSGVSNRFSGSKSGNTASLTISGLQAEDEADYYCSSYTTGSTRVFGGGTKLTVLG
# B2: I016F02 (scFv)
# scFv: GVQLVESGAEVKKPGASVKVSCRTSGYTFTSNSFSWVRQAPGQGLEWMGGIIPIFGTANYAQKLQGRVTITADELTRTVYMDLSSLRSEDTAVYYCATGMGDHYGMDVWGRGTLVTVSSGGGGSGGGGSGGGGSQSVLTQPASVSGSPGQSITISCTGTSSDVGGYNYVSWYQQHPGKAPKLMIYEGSKRPSGVSNRFSGSKSGNTASLTISGLQAEDEADYYCSSYTTRSTRVFGGGTKLTVLG
# B3: I061H01 (scFv)
# scFv: QVQLVQSGGGLVKPGGSLRLSCAASGFTFSNAWMSWVRQAPGKGLQWVGRIKSKTDGGTTDYAAPVKGRFTISRDDSKNTLYLQMNSLKTEDTAVYYCTTFNPTYDILTGYYIGGYFQHWGQGTMVTVSSGGGGSGGGGSGGGGSQSVLTQPASVSGSPGQSITISCTGTSSDVGGYNYVSWYQQHPGKAPKLMIYEGSKRPSGVSNRFSGSKSGNTASLTISGLQAEDEADYYCSSYTTRSTRVFGGGTQLTVLG
# notes: also called 1061H01
# B4: I006D08 (scFv)
# scFv: QVQLQQSGAEVKKPGSSVRVSCKASGGTFNNNAINWVRQAPGQGLEWMGGIIPMFGTAKYSQNFQGRVAITADESTSTASMELSSLRSEDTAVYYCARSRDLLLFPHYGMDVWGRGTMVTVSSGGGGSGGGGSGGGGSAFSSELTQDPAVSVALGQTVRVTCQGDSLRSYYASWYQQKPGQAPVLVIYGKNNRPSGIPDRFSGSSSGNTASLTITGAQAEDEADYYCNSRDSSGNHWVFGGGTELTVLG
# B5: I026E03 (scFv)
# scFv: EVQLVQSGGEVKRPGASVKVSCKASGYTFSRYGISWVRQAPGQGLEWMGWISAYNGKTSFAEKFQGRVTLTTDTSTTTVDMELRNLRSDDTAVYYCARTDYDILTGYPMGYFDPWGKGTLVTVSSGGGGSGGGGSGGGGSALSSELTQDPAVSVALGQTVKITCQGDSLRSFYAAWYQQKPGQAPILVISGKNNRPSGIPDRFSGSSSGNTASLTITGAQAEDEADYYCNSRDTSGNHYVFGAGTKLTVLG
# B6: I021B05 (scFv)
# scFv: QVQQSGADVKKPGGSLRLSCAASGFTFSSYSMNWVRQAPGKGLEWVSSISSSSSYIYYADSVKGRFTISRDNAKNSLYLQMNSLRAEDTAVYYCAREGGNYDILTGYYIGNGAFDIWGRGTMVTVSSGGGGSGGGGSGGGGSQSVLTQPASVSGSPGQSITISCTGTSSDVGGYNYVSWYQQHPGKAPKLMIYEGSKRPSGVSNRFSGSKSGNTASLTISGLQAEDEADYYCSSYTTRSTRVFGGGTKLTVLG
# Biological target: T1, membrane-bound B Lymphocyte Stimulator on U937 plasma membrane preparations (human, UniProt Q9Y275 1-285)
# T1 construct: Natural protein in plasma membrane fractions of the human cell line U937 coated on ELISA plates; also called U937 plasma membranes; U937 membranes
# Test: phage ELISA
row,Binder,binding result
1,B1,binds
2,B2,binds
3,B3,binds
4,B4,binds
5,B5,binds
6,B6,binds

# Biological target: T2, TNF-alpha (human, UniProt P01375 77-233)
# T2 construct: also called TNFα; TNF-α
# Test: phage ELISA
row,Binder,binding result
1,B1,no binding
2,B2,no binding
3,B3,no binding
4,B4,no binding
5,B5,no binding
6,B6,no binding

# Biological target: T3, TNF-beta (human, UniProt P01374 35-205)
# T3 construct: also called TNFβ; Tumour Necrosis Factor-beta
# T3 sequence (looked up): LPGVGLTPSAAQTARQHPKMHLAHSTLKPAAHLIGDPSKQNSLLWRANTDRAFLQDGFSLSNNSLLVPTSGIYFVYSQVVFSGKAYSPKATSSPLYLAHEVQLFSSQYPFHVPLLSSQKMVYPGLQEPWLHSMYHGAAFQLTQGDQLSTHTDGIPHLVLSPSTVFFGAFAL
# Test: phage ELISA
row,Binder,binding result
1,B1,no binding
2,B2,no binding
3,B3,no binding
4,B4,no binding
5,B5,no binding
6,B6,no binding

# Biological target: T4, Fas ligand (human, UniProt P48023 134-281, limits assumed)
# T4 sequence (looked up): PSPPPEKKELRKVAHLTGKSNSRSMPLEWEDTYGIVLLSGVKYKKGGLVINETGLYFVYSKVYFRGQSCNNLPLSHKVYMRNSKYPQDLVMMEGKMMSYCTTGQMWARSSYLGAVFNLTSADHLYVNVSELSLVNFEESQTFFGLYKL
# Test: phage ELISA
row,Binder,binding result
1,B1,no binding
2,B2,no binding
3,B3,no binding
4,B4,no binding
5,B5,no binding
6,B6,no binding

# Biological target: T5, TRAIL (human, UniProt P50591 114-281)
# T5 construct: also called TNF-related apoptosis inducing ligand
# Test: phage ELISA
row,Binder,binding result
1,B1,no binding
2,B2,no binding
3,B3,no binding
4,B4,no binding
5,B5,no binding
6,B6,no binding

# Biological target: T6, B Lymphocyte Stimulator, soluble form (human) (human, UniProt Q9Y275 134-285, biotinylated with NHS-biotin where used as biotinylated B Lymphocyte Stimulator)
# T6 construct: Coated on plastic, captured on streptavidin plates, amine-coupled to a CM5 chip or free in solution, depending on the assay; also called BLyS; immobilized B Lymphocyte Stimulator
# Test: phage competition ELISA
row,Binder,binding result
1,B1,binds
2,B2,binds
3,B3,binds
4,B4,binds
5,B5,binds
6,B6,binds
